For data set [1], the system named is O=C(O)c1cccc(O)c1. The data set is described as follows: purified protein. The note with it: fixed NADH, 50 mM Tris-SO4, pH 8.0, 25°C.
The target in data set [2] is T1, Rj3HB6H (Rhodococcus jostii, UniProt Q0SFK6).
T1 construct: gene RHA1_ro01869; full length, C-terminal His6 tag, produced in R. jostii RHA1#2; N-terminal Met lacking; 46,761 Da subunit; homodimer
The data set is described as follows: X-ray crystal structure, […] Å. It counts as binding. The note with it: pH 8.5 precipitant; co-bound phospholipid.

Substrate in data set [3]: NC(=O)C1=CN([C@@H]2O[C@H](COP(=O)(O)OP(=O)(O)OC[C@H]3O[C@@H](n4cnc5c(N)ncnc54)[C@H](O)[C@@H]3O)[C@@H](O)[C@H]2O)C=CC1
The data set is described as follows: purified protein. The note with it: fixed 3-hydroxybenzoate, 50 mM Tris-SO4, pH 8.0, 25°C.

Here are results for 3 molecules from PMC5472690, “3-Hydroxybenzoate 6-Hydroxylase from Rhodococcus jostii RHA1 Contains a Phosphatidylinositol Cofactor” (Frontiers in Microbiology, 2017).

What is called Km is the concentration of substrate that gives half-maximal velocity. A word on the kcat: it is the maximal rate divided by the concentration of active sites. Take Rj3HB6H (Rhodococcus jostii RHA1): in data set [1], the Michaelis constant (Km) was 35 ± 3 µM and the kcat came to 20 ± 1 s⁻¹.
With `Cc1cc2nc3c(=O)[nH]c(=O)nc-3n(C[C@H](O)[C@H](O)[C@H](O)COP(=O)(O)OP(=O)(O)OC[C@H]3O[C@@H](n4cnc5c(N)ncnc54)[C@H](O)[C@@H]3O)c2cc1C` [FAD], the “X-ray crystal structure, 2.3 Å” value in data set [2] was “The isoalloxazine moiety of FAD was refined with full occupancy”.

B1: Rj3HB6H (Rhodococcus jostii RHA1) (protein)
chain: SNLQDARIIIAGGGIGGAANALALAQKGANVTLFERASEFGEVGAGLQVGPHGARILDSWGVLDDVLSRAFLPKNIVFRDAITAEVLTKIDLGSEFRGRYGGPYFVTHRSDLHATLVDAARAAGAELHTGVTVTDVITEGDKAIVSTDDGRTHEADIALGMDGLKSRLREKISGDEPVSSGYAAYRGTTPYRDVELDEDIEDVVGYIGPRCHFIQYPLRGGEMLNQVAVFESPGFKNGIENWGGPEELEQAYAHCHENVRRGIDYLWKDRWWPMYDREPIENWVDGRMILLGDAAHPPLQYLASGAVMAIEDAKCLADYAAEDFSTGGNSAWPQILKEVNTERAPRCNRILTTGRMWGELWHLDGTARIARNELFRTRDTSSYKYTDWLWGYSSDRAS
Take B1: in data set [3], the Km came to 68 ± 5 µM and the kcat was found to be 20 ± 1 s⁻¹.
